This note sets out measurements from patent US20110129481A1.

Test [1] addresses human c-Met/Fc fusion protein (R&D Systems, Inc.) (human) (UniProt P08581). Description: ELISA, plate-bound c-Met/Fc (2 ug/ml), anti-mouse IgG-HRP. (In general: In an ELISA, binding on a coated surface is turned into a signal by an enzyme label.)
Test [2] concerns the target mouse c-Met/Fc fusion protein (R&D Systems, Inc.) (mouse) (UniProt P16056). The description is as above.
Chain of UniProt P16056 (P16056 25-931 limits assumed): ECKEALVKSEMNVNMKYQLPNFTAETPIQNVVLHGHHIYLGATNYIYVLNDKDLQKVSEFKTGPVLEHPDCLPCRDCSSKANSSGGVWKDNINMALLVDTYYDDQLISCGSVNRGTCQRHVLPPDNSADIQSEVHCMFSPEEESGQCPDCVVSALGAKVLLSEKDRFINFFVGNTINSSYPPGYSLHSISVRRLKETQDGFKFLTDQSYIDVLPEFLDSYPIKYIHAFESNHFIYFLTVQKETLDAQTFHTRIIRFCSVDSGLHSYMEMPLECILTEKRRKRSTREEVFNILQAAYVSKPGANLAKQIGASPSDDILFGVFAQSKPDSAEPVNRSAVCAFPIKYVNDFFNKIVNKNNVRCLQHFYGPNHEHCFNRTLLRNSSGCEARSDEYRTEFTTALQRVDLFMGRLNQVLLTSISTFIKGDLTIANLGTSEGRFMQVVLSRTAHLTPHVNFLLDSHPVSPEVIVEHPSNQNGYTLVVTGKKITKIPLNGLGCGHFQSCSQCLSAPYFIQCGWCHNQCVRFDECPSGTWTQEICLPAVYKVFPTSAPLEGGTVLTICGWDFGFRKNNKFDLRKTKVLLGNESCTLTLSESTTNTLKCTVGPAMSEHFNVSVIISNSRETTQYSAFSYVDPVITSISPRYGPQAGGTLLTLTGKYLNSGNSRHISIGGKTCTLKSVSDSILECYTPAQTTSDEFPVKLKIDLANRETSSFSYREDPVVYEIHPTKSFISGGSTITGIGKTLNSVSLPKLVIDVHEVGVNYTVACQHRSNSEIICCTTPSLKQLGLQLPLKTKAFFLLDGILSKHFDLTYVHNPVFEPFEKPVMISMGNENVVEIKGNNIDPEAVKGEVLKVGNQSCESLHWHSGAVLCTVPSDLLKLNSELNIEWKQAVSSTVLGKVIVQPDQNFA

Chain of UniProt P08581 (P08581 25-932 limits assumed): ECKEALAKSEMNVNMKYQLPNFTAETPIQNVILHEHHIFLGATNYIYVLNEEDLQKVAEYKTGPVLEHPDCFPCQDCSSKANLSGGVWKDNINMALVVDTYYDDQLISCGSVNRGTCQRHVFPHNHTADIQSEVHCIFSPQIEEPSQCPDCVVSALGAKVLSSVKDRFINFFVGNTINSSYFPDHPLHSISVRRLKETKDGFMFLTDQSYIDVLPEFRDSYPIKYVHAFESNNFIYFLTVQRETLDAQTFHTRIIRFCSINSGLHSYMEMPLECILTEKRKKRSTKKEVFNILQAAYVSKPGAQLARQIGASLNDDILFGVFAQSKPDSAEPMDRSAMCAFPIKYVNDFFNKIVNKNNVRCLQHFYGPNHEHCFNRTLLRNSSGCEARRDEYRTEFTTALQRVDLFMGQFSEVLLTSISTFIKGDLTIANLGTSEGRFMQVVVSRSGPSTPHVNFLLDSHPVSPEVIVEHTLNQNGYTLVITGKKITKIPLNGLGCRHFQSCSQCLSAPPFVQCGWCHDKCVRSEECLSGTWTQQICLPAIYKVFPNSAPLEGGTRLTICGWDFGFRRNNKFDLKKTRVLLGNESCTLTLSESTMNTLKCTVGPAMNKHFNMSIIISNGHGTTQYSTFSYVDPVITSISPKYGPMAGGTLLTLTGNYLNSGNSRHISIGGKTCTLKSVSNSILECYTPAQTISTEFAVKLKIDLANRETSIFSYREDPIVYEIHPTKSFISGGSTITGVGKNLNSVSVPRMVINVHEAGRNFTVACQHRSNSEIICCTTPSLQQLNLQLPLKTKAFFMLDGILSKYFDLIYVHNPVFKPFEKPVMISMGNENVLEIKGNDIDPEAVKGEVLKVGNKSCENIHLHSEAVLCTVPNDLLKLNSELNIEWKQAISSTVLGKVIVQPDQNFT

On to “monoclonal antibody against human c-Met, 5D5 (Genetech)”, for which the absorption at 450 nm was 0.373 in test [1] and 0.113 in test [2].
